Changes are numbered by the printed parent chain.
T1: Hsp90 from S. oneidensis (Hsp90So), purified, non-labeled (S. oneidensis, UniProt Q8EFF7 1-637)
T1 sequence (looked up): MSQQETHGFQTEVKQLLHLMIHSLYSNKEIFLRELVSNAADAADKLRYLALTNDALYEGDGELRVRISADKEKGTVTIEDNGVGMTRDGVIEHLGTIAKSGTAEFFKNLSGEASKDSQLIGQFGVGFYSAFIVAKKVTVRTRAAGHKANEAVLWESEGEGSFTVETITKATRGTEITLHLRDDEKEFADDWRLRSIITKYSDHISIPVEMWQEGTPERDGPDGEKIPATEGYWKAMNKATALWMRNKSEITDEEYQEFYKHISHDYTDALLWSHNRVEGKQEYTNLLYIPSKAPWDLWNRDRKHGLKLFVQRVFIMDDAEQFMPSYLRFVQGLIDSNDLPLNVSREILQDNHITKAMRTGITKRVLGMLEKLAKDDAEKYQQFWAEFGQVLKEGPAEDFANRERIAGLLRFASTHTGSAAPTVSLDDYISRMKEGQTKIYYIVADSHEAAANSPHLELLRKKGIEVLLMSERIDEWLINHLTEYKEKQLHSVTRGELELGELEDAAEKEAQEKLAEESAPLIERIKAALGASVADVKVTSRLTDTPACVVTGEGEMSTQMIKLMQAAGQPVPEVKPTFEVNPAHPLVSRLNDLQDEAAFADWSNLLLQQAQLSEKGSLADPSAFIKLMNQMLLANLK

B1: TilS from S. oneidensis (TilSSo), purified, with 6-His tag (natural protein, UniProt Q8EGF9 1-464, looked up)
chain: MTAQDLSVHIARWLDSLPLQAGSKLVLAYSGGVDSEVLAYGLSEYAKQRPDLRYQLIYVHHGLSPNADNWAKHCQARAAIYGLPVTVERVQLILGPRVSVEAEARKARYQAILPHLNPQDILLTAHHEDDQLETILLALKRGQGPKGLAAMGQIQPLSLADKGSCLQVRPLLDISREMIETFAQTRQLVHIEDESNQDDKYDRNFLRLEIIPRLKARWPSIATTASRSAQLCAEQQAIVETEVSERLPKLLVKAPVTEQTVLKLSELAAQPIEWQGILLRGFIESQEFSLPSYVQLQQMLQQLIHAKEDAKVHIRINDCVLRRFAGMLYLDSGETLSTALHITARDLHQEILTLLTQASAMVEDKIVPFALVTTGPRLRLPKADEVVSLGYGLPGQFRCQPHFRDKGRELKKLWQECAVPPWLRAEVGFLFYNDKLVMAFGLWVEKAFCAQGDEIGLSYLIANP
modifications: RED-tris-NTA 2nd generation dye (NanoTemper) on the 6-His tag
B2: TilSSoL340P, purified (natural protein, S. oneidensis, UniProt Q8EGF9 1-464, looked up)
chain: B1 chain with L340P
modifications: RED-tris-NTA 2nd generation dye (NanoTemper)

Biological target: T1, Hsp90 from S. oneidensis (Hsp90So), …
Test: MST

Binder | Kd [µM] | binding result
B1 | 1.09 | 
B2 |  | binds

Source: publication doi:10.1101/2025.07.01.662558 (bioRxiv, 2025)
